Experimental findings from patent US20100093563A1 (published 2010) are described below.

The assay concerns the target T1, ovalbumin (UniProt P01012 2-386).
T1 sequence: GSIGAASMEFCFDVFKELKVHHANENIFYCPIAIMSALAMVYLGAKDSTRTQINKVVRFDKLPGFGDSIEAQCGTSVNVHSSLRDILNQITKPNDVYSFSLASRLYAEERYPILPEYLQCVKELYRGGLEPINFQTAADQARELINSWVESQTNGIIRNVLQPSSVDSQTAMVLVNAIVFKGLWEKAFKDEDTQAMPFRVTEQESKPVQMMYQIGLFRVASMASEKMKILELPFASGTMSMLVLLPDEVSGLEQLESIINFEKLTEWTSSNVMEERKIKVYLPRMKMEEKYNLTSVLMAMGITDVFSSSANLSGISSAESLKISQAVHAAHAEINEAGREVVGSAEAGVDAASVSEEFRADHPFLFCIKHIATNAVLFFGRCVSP
Kind of assay: phage ELISA, ovalbumin coated 100 ng per well, anti-HA or anti-M13 detection. A general note: In an ELISA, binding on a coated surface is turned into a signal by an enzyme label.

B1: 2G12 domain exchanged Fab fragment displayed on phage (Fab, V domains shown)
VH: EVQLVESGGGLVKAGGSLILSCGVSNFRISAHTMNWVRRVPGGGLEWVASISTSSTYRDYADAVKGRFTVSRDDLEDFVYLQMHKMRVEDTAIYYCARKGSDRLSDNDPFDAWGPGTVVTVSP
VL: GVVMTQSPSTLSASVGDTITITCRASQSIETWLAWYQQKPGKAPKLLIYKASTLKTGVPSRFSGSGSGTEFTLTISGLQFDDFATYHCQHYAGYSATFGQGTRVEIKR
notes: also called 2G12 Fab; phage from 2G12 pCAL G13 vector
As to B1, the binding result is “no binding”.
